We go through 44 sequences from the Immune Epitope Database (IEDB).

pIC50: −log10 of the molar value. A value given as a limit tells only on which side of the number the result lay.

Experiment [1] deals with HLA-A*02:01. Put plainly: IEDB peptide-MHC binding, cellular MHC/competitive/fluorescence; ≥ and ≤ were set here for values at or beyond the usual limits of such assays.
Experiment [2] concerns the target HLA-A*02:02. Described as above.
Experiment [3] addresses HLA-A*02:03. Described as above.
For experiment [4], the target named is HLA-A*02:06. The experiment is described as follows: IEDB peptide-MHC binding, purified MHC/competitive/radioactivity; ≥ and ≤ were set here for values at or beyond the usual limits of such assays.
The target of experiment [5] is HLA-A*68:02. The description is as above.
The target of experiment [6] is HLA-A*02:01. Described as above.
For experiment [7], the target named is HLA-A*02:06. The experiment is described as follows: IEDB peptide-MHC binding, cellular MHC/competitive/fluorescence; ≥ and ≤ were set here for values at or beyond the usual limits of such assays.
Experiment [8] concerns the target HLA-A*68:02. The description is as above.
In experiment [9] the target is HLA-A*02:02. The experiment is described as follows: IEDB peptide-MHC binding, purified MHC/competitive/radioactivity; ≥ and ≤ were set here for values at or beyond the usual limits of such assays.
[10] abbreviates: source organism: Vaccinia virus WR.
The mark [11] stands for this setting: source organism: Mammarenavirus guanaritoense.
Setting [12] is: source organism: Mammarenavirus choriomeningitidis.
[13] abbreviates: source organism: Mammarenavirus machupoense.
Where [14] appears, read: source organism: Influenza A virus.

For orientation: pIC50 means −log10 of the IC50, conventionally taken in molar units.

Regarding CAVIPFDDI, the pIC50 was 4.77 in [1] (setting [10]); 4.80 in [2] (setting [10]); 5.00 in [3] (setting [10]); 5.93 in experiment [4] (setting [10]); 7.64 in experiment [5] (setting [10]).
On to CAVNTPVSM, for which the pIC50 was 4.31 in experiment [1] (setting [10]); 5.20 in experiment [2] (setting [10]); 4.80 in experiment [3] (setting [10]); 5.82 in experiment [4] (setting [10]); 6.30 in [5] (setting [10]).
For the sequence CNYTRFWYI, the negative logarithm of the IC50 (pIC50) in experiment [2] (setting [11]) was 5.00; in [3] (setting [11]), 5.27; in experiment [6] (setting [11]), 5.78; in experiment [4] (setting [11]), 6.59; in experiment [5] (setting [11]) it was 6.46.
Consider DIIDLLLPST, for which the negative-log IC50 (pIC50) was 4.84 in experiment [2] (setting [10]); 5.18 in experiment [3] (setting [10]); 6.02 in experiment [6] (setting [10]); 6.55 in experiment [4] (setting [10]); 6.79 in [5] (setting [10]).
As for DIKYDNKLL, the pIC50 in experiment [1] (setting [10]) was 4.58; in experiment [3] (setting [10]) it was 4.30; in experiment [7] (setting [10]), at most 4.15; in [8] (setting [10]), 4.61; in experiment [9] (setting [10]), 5.85.
For DTMRIYCSL, the pIC50 is 5.23 in experiment [2] (setting [10]); 5.26 in [3] (setting [10]); 5.47 in [6] (setting [10]); 5.54 in experiment [4] (setting [10]); 8.89 in experiment [5] (setting [10]).
Consider ETQSGALEVL, for which the negative logarithm of the IC50 (pIC50) is 5.29 in [1] (setting [10]); 5.28 in experiment [2] (setting [10]); 4.84 in experiment [3] (setting [10]); 5.80 in experiment [4] (setting [10]); 7.24 in experiment [5] (setting [10]).
The like results for EVRYIDITNI were, in that order, 5.07, 4.89, 5.24, 5.36 and 7.39.
FSLGAAVKA: the negative-log IC50 (pIC50) in experiment [1] (setting [12]) is 4.96; in experiment [2] (setting [12]), 5.19; in experiment [3] (setting [12]), 4.87; in experiment [4] (setting [12]), 6.49; in experiment [5] (setting [12]), 5.75.
Turning to FTDCRTIDAI, the pIC50 in experiment [2] (setting [10]) was 5.02; in experiment [3] (setting [10]) it was 4.89; in experiment [6] (setting [10]) it was 5.74; in experiment [4] (setting [10]), 6.12; in experiment [5] (setting [10]), 6.77.
In the case of FTHTTAFFNT, the pIC50 in [1] (setting [10]) was 5.00; in experiment [2] (setting [10]), 4.76; in [3] (setting [10]), 4.99; in [4] (setting [10]), 7.29; in [5] (setting [10]), 5.99.
As for GTGILFMEM, the negative logarithm of the IC50 (pIC50) in experiment [1] (setting [10]) is 5.20; in experiment [3] (setting [10]), 5.11; in [7] (setting [10]), 5.00; in [8] (setting [10]) it was 4.58; in experiment [9] (setting [10]) it was 5.66.
On to GVLHTKFWI, for which the pIC50 in experiment [2] (setting [10]) was 4.78; in [3] (setting [10]), 4.91; in [8] (setting [10]) it was 4.36; in [6] (setting [10]) it was 5.57; in experiment [4] (setting [10]) it was 6.38.
Take HVLLPFYET: the pIC50 in experiment [2] (setting [10]) is 4.79; in experiment [3] (setting [10]) it was 4.73; in experiment [6] (setting [10]), 5.60; in experiment [4] (setting [10]), 5.76; in [5] (setting [10]) it was 6.03.
As to IQYRQQLELA, the pIC50 in [1] (setting [10]) is at most 4.15; in [3] (setting [10]) it was 5.07; in experiment [7] (setting [10]), at most 4.15; in [8] (setting [10]), 4.89; in [9] (setting [10]), 5.36.
With IVDKFGKNHI, the negative-log IC50 (pIC50) was 4.95 in experiment [1] (setting [10]); 5.29 in [3] (setting [10]); 5.08 in experiment [7] (setting [10]); 4.91 in experiment [8] (setting [10]); 5.53 in experiment [9] (setting [10]).
IVPDADPPI: the negative logarithm of the IC50 (pIC50) in experiment [2] (setting [10]) is 5.29; in [3] (setting [10]), 4.97; in experiment [6] (setting [10]), 6.13; in experiment [4] (setting [10]) it was 6.56; in experiment [5] (setting [10]), 5.82.
Take IVPDIKLDA: the pIC50 in [1] (setting [10]) is 4.38; in [2] (setting [10]), 5.19; in experiment [3] (setting [10]), 4.80; in [4] (setting [10]) it was 5.46; in experiment [5] (setting [10]), 5.54.
The matching figures for IVQLPKRGV: 4.82, 4.92, 5.06, 5.51 and 5.37.
Regarding KADAVVADL, the negative logarithm of the IC50 (pIC50) was 5.29 in experiment [2] (setting [10]); 4.91 in [3] (setting [10]); 4.63 in experiment [8] (setting [10]); 5.40 in experiment [6] (setting [10]); 5.66 in [4] (setting [10]).
Regarding KLISEKETL, the pIC50 in [1] (setting [10]) is 4.99; in [3] (setting [10]), 4.61; in experiment [7] (setting [10]), 5.12; in [8] (setting [10]) it was at most 4.15; in experiment [9] (setting [10]), 6.08.
As to LIFNVKSKLL, the negative logarithm of the IC50 (pIC50) was 4.59 in experiment [1] (setting [10]); 5.17 in experiment [3] (setting [10]); 4.55 in experiment [7] (setting [10]); 4.49 in [8] (setting [10]); 5.62 in [9] (setting [10]).
Consider LNVSYLCHL, for which the negative logarithm of the IC50 (pIC50) in experiment [1] (setting [13]) is 5.20; in experiment [3] (setting [13]), 5.15; in [7] (setting [13]), 4.86; in experiment [8] (setting [13]) it was 4.69; in experiment [9] (setting [13]) it was 6.53.
For the sequence LVIRNEVNDT, the negative-log IC50 (pIC50) in experiment [1] (setting [10]) was 4.90; in experiment [2] (setting [10]), 5.26; in experiment [3] (setting [10]) it was 4.82; in experiment [4] (setting [10]), 5.66; in experiment [5] (setting [10]), 6.07.
With NAILHNIYRL, the pIC50 in [2] (setting [10]) is 5.25; in experiment [3] (setting [10]), 4.99; in [6] (setting [10]), 6.27; in [4] (setting [10]) it was 6.24; in [5] (setting [10]) it was 6.14.
Turning to NLYISDYKM, the pIC50 in [1] (setting [10]) is 5.21; in [3] (setting [10]), 4.60; in experiment [7] (setting [10]), 4.96; in [8] (setting [10]) it was 4.83; in [9] (setting [10]), 5.55.
In the case of NTVSSFQV, the pIC50 in [1] (setting [14]) was 4.28; in experiment [2] (setting [14]) it was at most 4.15; in experiment [3] (setting [14]), 4.22; in experiment [4] (setting [14]), 5.35; in experiment [5] (setting [14]), 6.25.
For NVLSIAPI, the negative-log IC50 (pIC50) was 5.07 in experiment [1] (setting [14]); 4.40 in [2] (setting [14]); 4.76 in experiment [3] (setting [14]); 5.63 in [4] (setting [14]); 5.88 in experiment [5] (setting [14]).
Take PLPCQLMYAL: the pIC50 in experiment [1] (setting [10]) was 4.89; in experiment [3] (setting [10]), 5.06; in experiment [7] (setting [10]), 5.01; in experiment [8] (setting [10]), 4.51; in [9] (setting [10]), 6.79.
The matching figures for QAKKPEVRI: 4.40, 5.18, 4.38, at most 4.15 and 6.13.
In the case of QTVDFTDCRT, the pIC50 in [1] (setting [10]) is 4.40; in experiment [2] (setting [10]), 4.52; in experiment [3] (setting [10]), 4.27; in experiment [4] (setting [10]), 5.44; in experiment [5] (setting [10]) it was 7.48.
Consider SAFDERRNRYL, for which the pIC50 in [1] (setting [14]) was 4.75; in [3] (setting [14]), 5.29; in experiment [7] (setting [14]), 4.46; in experiment [8] (setting [14]), 5.23; in experiment [9] (setting [14]), 5.89.
As to SAGFTATICL, the negative-log IC50 (pIC50) was 4.98 in experiment [1] (setting [10]); 5.16 in experiment [2] (setting [10]); 4.70 in experiment [3] (setting [10]); 5.62 in [4] (setting [10]); 5.41 in experiment [5] (setting [10]).
Consider SANMDWRSLT, for which the negative-log IC50 (pIC50) in experiment [1] (setting [10]) was 4.25; in [3] (setting [10]), 4.95; in experiment [7] (setting [10]) it was 4.32; in experiment [8] (setting [10]) it was 4.81; in [9] (setting [10]), 5.75.
As to STTGEWPLI, the negative logarithm of the IC50 (pIC50) in [1] (setting [10]) is 5.07; in experiment [2] (setting [10]) it was 4.68; in [3] (setting [10]), 4.35; in experiment [4] (setting [10]), 5.91; in [5] (setting [10]), 6.22.
With TTENAAYQV, the pIC50 in [1] (setting [10]) was 4.53; in experiment [2] (setting [10]), at most 4.15; in [3] (setting [10]), 4.29; in experiment [4] (setting [10]), 6.35; in experiment [5] (setting [10]), 6.73.
The matching figures for TVDFTDCRT: 4.47, 5.01, 4.57, 6.47 and 6.21.
As to VATFRDMLL, the negative logarithm of the IC50 (pIC50) in experiment [1] (setting [10]) was 5.05; in experiment [3] (setting [10]) it was 5.00; in experiment [7] (setting [10]), 5.11; in experiment [8] (setting [10]), 5.23; in experiment [9] (setting [10]), 5.60.
The like results for VAVNKSNKPL were, in that order, 4.35, 5.29, 4.75, 5.03 and 5.56.
The matching figures for VIVVPVIDRL: 4.83, 4.23, 4.96, 4.50 and 5.34.
In the case of VVECLTVPNI, the negative-log IC50 (pIC50) is 5.07 in experiment [2] (setting [10]); 4.71 in [3] (setting [10]); 5.37 in [6] (setting [10]); 6.52 in experiment [4] (setting [10]); 5.43 in [5] (setting [10]).
For the sequence VVIVENDNV, the negative logarithm of the IC50 (pIC50) in [1] (setting [10]) is 4.46; in experiment [2] (setting [10]), 4.88; in experiment [3] (setting [10]), 4.42; in [4] (setting [10]), 5.37; in [5] (setting [10]) it was 6.01.
For YLSKEDRIIT, the negative-log IC50 (pIC50) in experiment [1] (setting [10]) is 4.93; in [3] (setting [10]), 5.25; in experiment [7] (setting [10]), 4.31; in experiment [8] (setting [10]), 4.67; in experiment [9] (setting [10]) it was 5.89.
In the case of YTGGYDVSL, the negative-log IC50 (pIC50) in experiment [3] (setting [10]) is 5.22; in [7] (setting [10]), 4.69; in experiment [8] (setting [10]), 5.18; in experiment [6] (setting [10]), 5.43; in [9] (setting [10]) it was 5.70.
